Experimental data from the supplement of paper PMC9170038.

Test system: MS2 coat protein
Experiment: apparent KD of MS2 coat protein; higher = weaker reporter binding
Settings: Eterna round: R107
Procedure, shortened: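 The buffer was 100 mM Tris-HCl pH 7.5 with 80 mM KCl and 4 mM MgCl2, used without or with constant ligand. In it, RNA switches transcribed on-chip from Illumina sequencing clusters were titrated with SNAP-549-labelled MS2 coat protein in twofold steps from 0.7 or 1.5 nM to 3 µM. Apparent KD for each design is the median of its normalised cluster binding-curve fits.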

[1] = input ligand: theophylline 20 uM
[2] = input ligand: theophylline 2 mM
[3] = input ligand: tryptophan 2.4 mM

Sequence | apparent KD of MS2 coat protein (input ligand: arginine 13.2 mM) [nM] | apparent KD of MS2 coat protein (input ligand: none) [nM] | apparent KD of MS2 coat protein [1] [nM] | apparent KD of MS2 coat protein [2] [nM] | apparent KD of MS2 coat protein [3] [nM]
GUAUACAUGAGGAUCACCCAUGUACCAGAAGGAGCGCUGGAAACAGCAGGUAGGUCGCUGGUAGGUCCUCUAUCUAGACGUUCUU [EAA NP+V+V2 #6] | 40.5 | 193 | 167 | 157 | 110
GUAUAUUAUAGAAGGAGCGUCGAAAAUGGGUAAACAUGAGGAUCACCCAUGUAAAGGGAACGACAGGUAGGUCGCUAUAAUAUAC [AstromonsSSArgB#14] | 154 | 218 | 233 | 311 | 220
GUCCGACAUGAGGAUCACCCAUGUACUGAAGGAGCGGACAAAUGUCCAGGUAGGUCGCAGCUAUAUGGUGUGGACCGAUCCGGAC [Ustius] | 19 | 22 | 27.2 | 23.6 | 22.4
GUCGUGGUCGGAAGGAGCGACAUGAGGAUCACCCAUGUCUCCCGUUAUGGGAGUUCCUUAGGUCAGGUAGGUCGCCGACUGCGGC [#1 Exclusion - Arginine B Attempt #23 (Inspired by Omei)] | 54.7 | 199 | 170 | 276 | 181
GUCUCAGACCGAGAUACCAGCUGGGUUUCCCACAUGAGGAUCACCCAUGUAUUCAGAUUAAGCCCUUGGCAGCUCAUCUAGGUCC [theeternabot_sameState_MS2_Theo_B_44] | 21.8 |  | 20.6 |  | 16.6
GUCUUGGGAUCGGCCGCCACUACAUGAGGAUCACCCAUGUGGACAAAUAGGGUUGUUAAGCUCGGUAGGACCGGGAUUCGGACAU [Oncetexeza] | 22.1 | 26 | 41.1 | 27.3 | 111
GUGUUUGUGUGAGAUACCAGUGAGGCCACAUGAGGAUCACCCAUGUCCCUCACUCCGGCCCACCCUUGGCAGCUCUUAUAGUAGU [Exclusion Theophylline B GF 23] | 9.34 |  | 13.3 |  | 9.83
GUUAUAACAAAAGUUGUAACAGUGGGUGAACGAGGACCGGUACGGCCGCCACUCGGACAUGAGGAUCACCCAUGUCCAUGUGAAA [AstrosExyTryA#15] | 14.1 |  | 18.2 | 21.6 | 
GUUAUAGACGGAAGGAGCGCGGCCACAUGAGGAUCACCCAUGUAUUGUGUUGGUAAUAGGUCGCAGGUAGGUCGCCGAUUAAUGA [Same State - Arginine B / A] | 35.9 | 55.1 | 61.7 | 47.5 | 34
GUUAUAUCAAAAGAUGUAACAGUGGGUGAACGAGGACCGGUACGGCCGCCACUCGGACAUGAGGAUCACCCAUGUCCAUGUGAAA [AstrosExyTryA#14] | 15.8 |  | 17.5 | 18.7 | 
UAAACUACACAUGAGGAUCACCCAUGUGGCCGAGGACCGGUACGGCCGCCACUCGUGUGUUAAUAAAAGAACUGCAAGGUUCUGU [Laorat] | 68.7 |  | 419 | 552 | 
UAAAUAUUACUGGGUAAGGUAUAAAUAGAUACCAGCCAGAUAACUGGCCCUUGGCAGCUAAACAUGAGGAUCACCCAUGUAUAAU [TheoAS 20 #OpenEnded #Ms2Late] | 23.5 |  | 44 |  | 33.2
UAACAUGAGGAUCACCCAUGUUUGAAGGAACGAGGACCGGUACGGCCGCCACUCGACGAGUGGAUGAGAAGUGGGAUUGUGUGCU [Same State Trp A GF8] | 14.4 | 13 | 17.5 | 17.3 | 15.2
UAAUCAGUGCCGGUUCUCGGAUCCUCAUGUCGAGGACCGGUACGGCCGCCACUCGGAACAUGAGGAUCACCCAUGUAAUAAUAAU [#10 Exclusion Tryptophan A] | 40.7 |  | 101 | 162 | 
UAAUGCAGGUCGGCCGCCACUACACACAUGAGGAUCACCCAUGUAGUUACUGGGUGAAGUGGCAGUAGGACCGGGACCUGCAUAA [Brourd01] | 185 |  | 467 | 873 | 
UACAUGAGGAUCACCCAUGUAUAACCGGUACGAGGACCGGUACGGCCGCCACUCGAAACAUGAGGAUCACCCAUGUGCUACUAUU [Same State Trypophan A GF 22] | 25.3 |  | 36.4 | 35.1 | 
UACAUGAGGAUCACCCAUGUAUACAUGGAUACCAGCGACAAUGGGCGCCCUUGGCAGCUAGUGGAUGGAGGGUGGCCACAGUACU [Exclusion Theophyline A GF5] | 25.5 |  | 53.1 |  | 42.7
UACAUGAGGAUCACCCAUGUAUUGCCGGUACGAGGACCGGUACGGCCGCCACUCGGGACAUGAGGAUCACCCAUGUGCUGCUAUU [Same State Trypophan A GF 23] | 28.7 | 44.4 | 49.8 | 42.4 | 45.8
UAUAUAUAGGCGGCCGCCACUGAUUUUCAUAUAUAUAUAACAUGAGGAUCACCCAUGUAGAUAUACAGGACCGGGCCUAUAUAUA [aaaA] | 17 | 16.1 | 16.5 | 14.7 | 13.3

Sequence | apparent KD of MS2 coat protein (input ligand: arginine 13.2 mM) [nM] | apparent KD of MS2 coat protein (input ligand: none) [nM] | apparent KD of MS2 coat protein [1] [nM] | apparent KD of MS2 coat protein [2] [nM] | apparent KD of MS2 coat protein [3] [nM]
UAUCCACAUGAGGAUCACCCAUGUAGGGAAGGAGCGGUGAUUUCACCAGGUAGGUCGCCUUACUGAGGAGAACCGGUGGAAUCGU [Exclusion - Arginine A (Freestyle 30)] | 45.5 | 25.9 | 40.6 | 75.9 | 19.8
UCAGUGCAAGGAAGGAGCGGGUACAUGAGGAUCACCCAUGUGCAAGUGGUGAGCGUUUGUGCCCAGGUAGGUCGCCUAGCCUGGU [XArg-B18] | 507 | 125 | 172 | 179 | 159
UCAUGCAGGUCGGCCGCCACUACACACAUGAGGAUCACCCAUGUAGUUACUGGGUGAAGUGGCAGUAGGACCGGGACCUGCACAC [Brourdmod17] | 155 | 504 | 632 | 849 | 1090
UCCACAUGAGGAUCACCCAUGUGCCAUGAUACCAGACAUGAAAAUGUCCCUUGGCAGCAUGAGUGAGGCAUCCGAAAGGAUGCCU [Chrlice] | 149 | 157 | 260 | 38.3 | 409
UCCUCCUCCGCAAGGAGGAGGAGUUGCGAUACCAGCACGGUAACGUGCCCUUGGCAGCGCACAUGAGGAUCACCCAUGUCAUGUU [#1 Exclusion - Theophylline A Attempt #11 (HarryS)] | 15 |  | 24.5 |  | 17.1
UCCUCCUCCGCAAGGAGGAGGAGUUGCGAUACCAGCCCGGAAACGGGCCCUUGGCAGCGCACAUGAGGAUCACCCAUGUCAUGUU [#1 Exclusion - Theophylline A Attempt #8 (HarryS)] | 14.6 | 18.1 | 19.8 | 30.6 | 18
UCCUUAGAUACUGAUACCAGACUACAGUAAACAUGAGGAUCACCCAUGUUUGAUCACUAAGUCCCUUGGCAGCAGGUACAUGGGA [Theo B SS r1] | 12.6 |  | 12.9 |  | 11.9
UCGCAUUGCUGCGAUACCAGACAUGAGGAUCACCCAUGUACCAAGAAAACGUACAUAAAUGUCCCUUGGCAGCGCAGCAAUGCGU [MAT - Exclusion Theophlline B - Mod of Eli - D26] | 148 |  | 656 |  | 631
UCGCCCAGAAAGGAUUGCUGGGAUAUGGAAGGAGCGCUGAUGCCAGCAGGUAGGUCGCCAACGGACAUGAGGAUCACCCAUGUAC [Same State - Arginine A (Freestyle 6)] | 16.7 | 19.8 | 28.7 | 21.1 | 20.9
UCGCCCAGGUAGGCUUAAUGGGAUAUGGAAGGAGCGCUGAUGCCAGCAGGUAGGUCGCCAACGGACAUGAGGAUCACCCAUGUAC [Same State - Arginine A (Freestyle 4)] | 24.7 | 18 | 34.6 | 27.1 | 22.7
UCGGGCCUUCUUUCUUGGCCCGUUACAGAAGGAGCGUCGGAAAUGACAGGUAGGUCGCUGAGAACAUGAGGAUCACCCAUGUAUU [SSAA #14] | 16.8 | 26.4 | 28.9 | 25.1 | 22.1
UCGUGAGUUUCGGAUACCAGUGUUGUCGAUACAUGAGGAUCACCCAUGUUAGAGGAUGUACACCCUUGGCAGCCGGCUGUGGCGG [lplmullin] | 15.8 |  | 16.1 |  | 17.3
UGACAUUGCUCAGAUACCAGACAUGAGCAUCAGCCAUGUACCGAGAGUACAUGUUAAAGUGUCCCUUGGCAGCUGAGCAAUGUCU [Mod of Eli's TheoBX5 #AlternateMS2 v4] | 116 | 328 | 640 | 371 | 404
UGACAUUGCUGCGAUACCAGACAUGAGGAUCACCCAUGUACCAAGGUACCCGAAAGGAAUGUCCCUUGGCAGCGCAGCAAUGUCU [MAT - Exclusion Theophlline B - Mod of Eli - D18] | 10.6 |  | 11.6 |  | 9.73
UGAUACCAGUCGGCCGCCACUAUGCUAGAUACUAGCAAUAAAGGGCGACAUGAGGAUCACCCAUGUAGGACCGGGACUGGUAUCU |  |  | 14.1 | 12 | 
UGCACCAUAAUCAUGUUGGUGCUAGGUGAUACCAGCAUCGAAAGAUGCCCUUGGCAGCACCAACAUGAGGAUCACCCAUGUAAUA [(MT)''-(M)'-(T')-(Theo)-(Ms2)_Design1/22_3] | 60.1 |  | 351 |  | 57.9
UGCAUCAUAAUCAUGUAGGUGCUAGGUGAUACCAGCAUCGAAAGAUGCCCUUGGCAGCACCAACAUGAGGAUCACCCAUGUAAUA [(MT)''-(M)'-(T')-(Theo)-(Ms2)_Design1/22_1] | 48.4 |  | 186 |  | 231
UGCGACAAGUGAAUACUUUGUUCUAGAGAUACCAGUUCCCGAGUGAACCCUUGGCAGCUCCCAACAUGAGGAUCACCCAUGUAUU [theeternabot_exclusion_MS2_Theo_A_24] | 15.9 |  | 20 |  | 13.5
